Measured values taken from paper PMC1626583.

Target: FIII9–10 mutant Ala5, GST fusion protein (human)
Assay: SPR

“integrin α5β1 (from UniProt P05556 21-798) (receptor)” showed a Kd of 63 nM.
